We go through one molecule from patent US20260166131A1, “METHOD FOR PROMOTING PATHOLOGICAL TDP-43 PROTEIN DEGRADATION, AND DRUG” (TALENGEN INTERNATIONAL LIMITED, priority 2022, published 2026).

Data set [1] addresses T1, TDP-43 (Homo sapiens, UniProt Q13148).
T1 construct: purchased Nanjing GenScript Biotechnology Co., Ltd. C134WHE160-2/P5HF001
Put plainly: Cleavage of TDP-43 protein in normal mouse brain homogenate (Western blot). The class given is biochemical. The settings on record: normal mouse brain homogenate + recombinant TDP-43, 37° C. 3 h, vs vehicle control group. Here is the method:
Four C57BL/6J male mice aged 11-12 weeks and weighing 18-25 g were sacrificed, and the whole brain was taken out to weigh. 1×PBS was added at 150 mg tissue/mL PBS (Thermo Fisher, pH 7.4; 10010-031) to homogenize at 4° C. (1 min, 3-4 times). After homogenization, centrifugation was performed at 4° C. (12000 rpm, 20 min), and the supernatant, i.e., the brain homogenate, was placed in a new EP tube.
Eppendorf (EP) tubes were set as: (1) blank group, (2) blank control group, (3) vehicle control group, and (4) plasminogen group, with 5 parallels in each group. The blank group was added with 21.5 μL of normal saline, 4.6 μL of vehicle solution (10 mM sodium citrate, 2% arginine hydrochloride, 3% mannitol, pH 7.4), and 23.9 μL of mouse brain homogenate; the blank control group was added with 21.5 μL of normal saline, 2.3 μL of plasminogen solution (2 mg/mL), and 23.9 μL of mouse brain homogenate; the vehicle control group was added with 20.5 μL of TDP-43 (Nanjing GenScript Biotechnology Co., Ltd., custom-expressed human TDP-43, C134WHE160-2/P5HF001, 1.05 mg/mL), 4.6 μL of vehicle solution, and 23.9 μL of mouse brain homogenate; the plasminogen group was added with 20.5 μL of TDP-43 (1.05 mg/mL), 2.3 μL of plasminogen solution (2 mg/mL), and 23.9 μL of mouse brain homogenate. After adding each group of samples, they are incubated at 37° C. for 3 h, then adding 50 μL of 0.1% trifluoroacetic acid solution to terminate the reaction.
A 12% gel was prepared according to the SDS-PAGE gel preparation instructions. Each group of samples was mixed with 4× loading buffer (TaKaRa, e2139) at a volume ratio of 3:1, heating at 100° C. for 5 min, cooling and centrifuging for 2 min, and then 20 μL was taken for sample loading. […] After washing 4 times with TBST, the PVDF membrane was placed on a clean imaging plate, Immobilon Western HRP Substrate (MILLIPORE, WBKLS0100) was added for color development, and photos were taken under a biomolecular imager, then performing quantitative analysis by using Image J.
A general note: In western blotting, separated proteins are transferred to a membrane and probed.

The conditions of data set [2]: Parkinson's model mice, 50 mg/kg tail vein. How it is done: Eighteen 6-week-age male C57BL/6J mice were injected intraperitoneally with 1-methyl-4-phenyl-1,2,3,6-tetrahydropyridine (MPTP) solution at a dose of 35 mg/kg/mouse for 5 consecutive days to establish a Parkinson's model. Preparation of MPTP solution: 45 mg of MPTP (Sigma, M0896) was dissolved in 9 ml of physiological saline solution to prepare a final concentration of 5 mg/ml. The mice were randomly divided into two groups according to their body weight: 6 mice in vehicle group, 12 mice in plasminogen group; and administration was begun to record as day 1. The mice in the plasminogen group were injected with 50 mg/kg body weight of plasminogen solution by tail vein, and the mice in the vehicle group were injected with 5 mL/kg body weight of vehicle solution (10 mM citric acid-sodium citrate solution, pH 7.4) by tail vein.

The target in data set [3] is TDP-43 (Mus musculus, UniProt Q921F2). Put plainly: TDP-43 in brain tissue of okadaic acid-induced dementia model (FAD) mice (Western blot). It is filed as in vivo. On the set-up: from tissue; host or cells: mouse spinal cord, gluteal muscle, brain, kidney cell nuclei. Conditions: okadaic acid in basolateral amygdala, 50 mg/kg tail vein single dose, 6 hours, vs vehicle group. How it is done:
Ten B6SJL-Tg (APPSwFlLon, PSEN1*M146L*L286V) 6799Vas/Mmjax (hereinafter referred to as FAD) female mice aged 30-32 weeks (purchased from Jackson lab, stock number: 034840) were taken to weigh before modeling as the model group, and five C57 female mice aged 6-7 weeks were selected as the blank group. After grouping, mice in the blank group and model group were anesthetized by intraperitoneal injection of tribromoethanol at a dose of 20 mL/kg. Model mice were located in the basolateral amygdala according to the mouse stereotaxic atlas (according to the coordinates of the bregma: AP-1.94 mm, ML+3.15 mm, DV-4.5 mm), and each mouse was slowly microinjected bilaterally. Mice in the blank group were only drilled at the coordinate location point without injection. The mice in the model group were injected with 50 ng/μL okadaic acid (manufacturer: Shanghai Yuanye Biotechnology Co., Ltd., catalog number S30686-25 ug:) solution, the injection rate was 0.5 μL/min, the injection volume was 2 μL, and after the injection, the syringe stayed for 6 minutes and then slowly withdrew. […] The mice were killed 6 hours after the single administration and the brain tissues were obtained. After homogenization, TDP-43 was detected by western blot.

Like-named read-outs stand apart in the source and are kept apart here.

T1 sequence (Q13148 whole entry): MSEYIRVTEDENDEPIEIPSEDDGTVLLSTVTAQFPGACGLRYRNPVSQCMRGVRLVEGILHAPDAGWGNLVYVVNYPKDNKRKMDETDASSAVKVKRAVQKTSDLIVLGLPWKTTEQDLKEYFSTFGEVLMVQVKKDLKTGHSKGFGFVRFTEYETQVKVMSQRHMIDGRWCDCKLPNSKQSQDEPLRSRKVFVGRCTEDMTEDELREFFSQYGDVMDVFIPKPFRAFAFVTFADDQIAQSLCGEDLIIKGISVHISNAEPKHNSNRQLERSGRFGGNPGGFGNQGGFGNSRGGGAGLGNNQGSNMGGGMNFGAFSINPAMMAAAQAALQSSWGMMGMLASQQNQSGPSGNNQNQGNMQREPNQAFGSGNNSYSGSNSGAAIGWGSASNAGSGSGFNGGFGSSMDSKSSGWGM
Sequence of TDP-43 (Mus musculus, UniProt Q921F2) (Q921F2 whole entry): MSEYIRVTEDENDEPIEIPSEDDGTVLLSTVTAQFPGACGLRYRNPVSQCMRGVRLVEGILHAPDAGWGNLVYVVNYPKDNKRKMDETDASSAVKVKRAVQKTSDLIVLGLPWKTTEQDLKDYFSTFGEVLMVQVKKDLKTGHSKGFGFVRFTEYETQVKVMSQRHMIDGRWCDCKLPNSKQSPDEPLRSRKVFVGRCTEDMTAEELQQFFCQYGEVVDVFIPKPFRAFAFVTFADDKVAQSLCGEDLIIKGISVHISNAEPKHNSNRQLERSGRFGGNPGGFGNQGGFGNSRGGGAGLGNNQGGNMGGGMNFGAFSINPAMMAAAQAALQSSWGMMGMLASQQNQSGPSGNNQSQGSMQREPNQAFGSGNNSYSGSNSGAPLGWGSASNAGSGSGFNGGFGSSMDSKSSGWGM

B1: plasminogen: human plasminogen purified from human donor plasma, in which human Lys-plasminogen and Glu-plasminogen are >98% (protein)
chain: KVYLSECKTGNGKNYRGTMSKTKNGITCQKWSSTSPHRPRFSPATHPSEGLEENYCRNPDNDPQGPWCYTTDPEKRYDYCDILECEEECMHCSGENYDGKISKTMSGLECQAWDSQSPHAHGYIPSKFPNKNLKKNYCRNPDRELRPWCFTTDPNKRWELCDIPRCTTPPPSSGPTYQCLKGTGENYRGNVAVTVSGHTCQHWSAQTPHTHNRTPENFPCKNLDENYCRNPDGKRAPWCHTTNSQVRWEYCKIPSCDSSPVSTEQLAPTAPPELTPVVQDCYHGDGQSYRGTSSTTTTGKKCQSWSSMTPHRHQKTPENYPNAGLTMNYCRNPDADKGPWCFTTDPSVRWEYCNLKKCSGTEASVVAPPPVVLLPDVETPSEEDCMFGNGKGYRGKRATTVTGTPCQDWAAQEPHRHSIFTPETNPRAGLEKNYCRNPDGDVGGPWCYTTNPRKLYDYCDVPQCAAPSFDCGKPQVEPKKCPGRVVGGCVAHPHSWPWQVSLRTRFGMHFCGGTLISPEWVLTAAHCLEKSPRPSSYKVILGAHQEVNLEPHVQEIEVSRLFLEPTRKDIALLKLSSPAVITDKVIPACLPSPNYVVADRTECFITGWGETQGTFGAGLLKEAQLPVIENKVCNRYEFLNGRVQSTELCAGHLAGGTDSCQGDSGGPLVCFEKDKYILQGVTSWGLGCARPNKPGVYVRVSRFVTWIEGVMRNN
B1: in the data set with TDP-43 [1] (WB optical density), the “amount of TDP-43 monomer” value is on record as “significantly lower”. Also, in the data set with TDP-43 [1], the “amount of high molecular weight TDP-43 protein (HMW)” value is reported as “significantly lower” and the “amount of low molecular weight TDP-43 fragment (LMW)” value is “significantly lower”. Besides, in data set [2] (2 hours), the “ratio of brain tissue plasminogen level to blood plasminogen level” value (shortened to “ratio of brain tissue plasminogen level”) came out at 3.47% and the “ratio of spinal cord tissue plasminogen level to blood plasminogen level” value is given as 1.24%. Moreover, in data set [2] (6 hours), the “ratio of brain tissue plasminogen level” value stood at 4.18% and the “ratio of spinal cord tissue plasminogen level to blood plasminogen level” value turned out to be 1.16%. For the same molecule, in data set [2] (12 hours), the “ratio of brain tissue plasminogen level” value was 8.51% and the “ratio of spinal cord tissue plasminogen level to blood plasminogen level” value was 1.46%. Besides, in the data set with TDP-43 [3], the “level of TDP-43 monomer in brain tissue” value is “significantly lower” and the “level of low molecular weight TDP-43 in brain tissue” value is “significantly lower”.
